Reference: PMC7782793, “Hydroxamic acid-modified peptide microarrays for profiling isozyme-selective interactions and inhibition of histone deacetylases” (Nature Communications, 2021)
Starred links: 1 amine or outer side, 2 acyl side, 3 side chain; linkers in the order of their positions; H or OH if unused. Non-standard residues stand in square brackets, D forms with d. Residues, ends and D or L forms follow the SMILES beside them. No end group written: not given here. Asuha = 2-aminosuberic acid hydroxamate, O=C(CCCCC[C@H](N[*:1])C(=O)[*:2])NO[*:3]

Columns and labels:
Assay in all cases: Recombinant HDAC µSPOT microarray binding assay;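 as to Bottom (Value): Cellulose-bound peptide spots on slides incubated with six HDAC enzyme concentrations, binding intensity read, four-parameter variable-slope fit, EC50 is enzyme concentration giving half-maximal binding, in HEPES buffer pH 7.4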;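 as to Bottom (dose-response curve fit): peptide spots on cellulose slides incubated with rising HDAC enzyme concentrations, imaged together, four-parameter logistic fit, EC50 is enzyme concentration giving half-maximal binding signal, two experiments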;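 as to Bottom (dose-response fit): relative spot intensity from the six enzyme-concentration slides imaged together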;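 as to Bottom (dose-response fit): slides with spotted peptides incubated with six HDAC concentrations in HEPES buffer pH 7.4, spot intensities fitted by four-parameter logistic, EC50 as enzyme concentration giving half-maximal binding signal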;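 as to HillSlope (Value): Cellulose-bound peptide spots on slides incubated with six HDAC enzyme concentrations, binding intensity read, four-parameter variable-slope fit, EC50 is enzyme concentration giving half-maximal binding, in HEPES buffer pH 7.4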;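 as to Top (Value): Cellulose-bound peptide spots on slides incubated with six HDAC enzyme concentrations, binding intensity read, four-parameter variable-slope fit, EC50 is enzyme concentration giving half-maximal binding, in HEPES buffer pH 7.4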;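 as to Top (dose-response curve fit): peptide spots on cellulose slides incubated with rising HDAC enzyme concentrations, imaged together, four-parameter logistic fit, EC50 is enzyme concentration giving half-maximal binding signal, two experiments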;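 as to Top (dose-response fit): relative spot intensity from the six enzyme-concentration slides imaged together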;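 as to Top (dose-response fit): slides with spotted peptides incubated with six HDAC concentrations in HEPES buffer pH 7.4, spot intensities fitted by four-parameter logistic, EC50 as enzyme concentration giving half-maximal binding signal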
HDAC1 = biological target: T1, HDAC1 (Homo sapiens, UniProt Q13547); conditions: µSPOT microarray; for Bottom (dose-response fit): fitted bottom plateau of the binding curve; for Top (dose-response fit): fitted top plateau of the binding curve;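 as to Bottom (dose-response fit): relative spot intensity from the six enzyme-concentration slides imaged together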;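 as to Top (dose-response fit): relative spot intensity from the six enzyme-concentration slides imaged together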;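 as to all read-outs here: slides with spotted peptides incubated with six HDAC concentrations in HEPES buffer pH 7.4, spot intensities fitted by four-parameter logistic, EC50 as enzyme concentration giving half-maximal binding signal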
T1 construct: HDAC1 (full length, C-terminal His tag, C-terminal FLAG tag, BPS Bioscience, cat. #: 50051); FLAG (C); purchased BPS Bioscience 50051
Description: (§1) Experiments were performed twice, data were obtained with Array Analyze software (Active Motif), and data analysis and representation were performed with the GraphPad Prism 7 software. Outliers were curated manually and data were fitted to nonlinear regression [log(agonist) vs. response—variable slope (four parameters)]. […] Non-sigmoidal curves were denoted as not determined (N.D.) The pEC50 values were determined as the concentration of HDAC enzyme required for half-maximal binding signal.

HDAC2 = biological target: T2, HDAC2 (Homo sapiens, UniProt Q92769); conditions: for Bottom (Value) / Top (Value) / HillSlope (Value): HDAC2 microarray dose-response curve fit, X = Asuha, sheet Fig. 3 HDAC2; for Bottom (Value): bottom plateau; for Top (Value): top plateau;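 as to all read-outs here: Cellulose-bound peptide spots on slides incubated with six HDAC enzyme concentrations, binding intensity read, four-parameter variable-slope fit, EC50 is enzyme concentration giving half-maximal binding, in HEPES buffer pH 7.4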
T2 construct: HDAC2 (full length, C-terminal His tag, BPS Bioscience, cat. #: 50002); purchased BPS Bioscience 50002
Description: as §1

HDAC8 = biological target: T3, HDAC8 (Homo sapiens, UniProt Q9BY41);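 also: peptide µSPOT slides incubated with varying HDAC enzyme concentrations, imaged signal intensity fitted by four-parameter variable-slope regression, EC50 is enzyme concentration giving half-maximal binding, pH 7.4 HEPES buffer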
T3 construct: HDAC8 (full length, C-terminal His tag, BPS Bioscience, cat. #: 50008); purchased BPS Bioscience 50008
T3 sequence (Q9BY41 1-377): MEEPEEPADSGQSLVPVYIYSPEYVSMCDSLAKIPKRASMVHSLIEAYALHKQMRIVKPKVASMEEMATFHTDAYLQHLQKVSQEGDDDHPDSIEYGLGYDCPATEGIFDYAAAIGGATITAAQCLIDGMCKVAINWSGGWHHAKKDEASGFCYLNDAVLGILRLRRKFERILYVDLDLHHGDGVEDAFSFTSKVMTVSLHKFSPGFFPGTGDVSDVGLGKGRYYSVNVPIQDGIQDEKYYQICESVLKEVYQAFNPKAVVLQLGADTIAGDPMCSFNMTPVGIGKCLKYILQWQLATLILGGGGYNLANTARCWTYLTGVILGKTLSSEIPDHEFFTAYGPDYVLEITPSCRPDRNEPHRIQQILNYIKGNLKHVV

HDAC3/NCoR2 = biological target: T4, HDAC3/NCoR2 (Homo sapiens, UniProt O15379); conditions: for Bottom (dose-response curve fit): fitted bottom plateau of binding signal; for Top (dose-response curve fit): fitted top plateau of binding signal;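 as to all read-outs here: peptide spots on cellulose slides incubated with rising HDAC enzyme concentrations, imaged together, four-parameter logistic fit, EC50 is enzyme concentration giving half-maximal binding signal, two experiments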
T4 construct: HDAC3/NCoR2 (full length, C-terminal His tag, NCoR2 N-terminal GST tag); purchased BPS Bioscience 50003
Description: as §1

[1] = recombinant HDAC1, Fig. 3, X = Asuha, Hill slope of the binding curve
[2] = recombinant HDAC1, Fig. 3, X = Asuha
[3] = HDAC8 µSPOT microarray dose-response fit, Bottom Value, X = Asuha, sheet Fig. 3 HDAC8
[4] = HDAC8 µSPOT microarray dose-response fit, HillSlope Value, X = Asuha, sheet Fig. 3 HDAC8
[5] = HDAC8 µSPOT microarray dose-response fit, Top Value, X = Asuha, sheet Fig. 3 HDAC8
[6] = HDAC3 µSPOT microarray, Fig. 3, Hill slope of dose-response fit, X = Asuha
[7] = HDAC3 µSPOT microarray, Fig. 3, X = Asuha
[8] = dose-response fit parameter, H4 K12X (X = Asuha) peptides, HDAC1
[9] = dose-response fit parameter, µSPOT microarray, H4 K12X (X = Asuha) peptides, HDAC2
[10] = dose-response fit parameter, µSPOT microarray, H4 K12X (X = Asuha) peptides, HDAC8
[11] = dose-response fit parameter, µSPOT microarray, H4 K12X (X = Asuha) peptides, HDAC3

T1 sequence (Q13547 whole entry): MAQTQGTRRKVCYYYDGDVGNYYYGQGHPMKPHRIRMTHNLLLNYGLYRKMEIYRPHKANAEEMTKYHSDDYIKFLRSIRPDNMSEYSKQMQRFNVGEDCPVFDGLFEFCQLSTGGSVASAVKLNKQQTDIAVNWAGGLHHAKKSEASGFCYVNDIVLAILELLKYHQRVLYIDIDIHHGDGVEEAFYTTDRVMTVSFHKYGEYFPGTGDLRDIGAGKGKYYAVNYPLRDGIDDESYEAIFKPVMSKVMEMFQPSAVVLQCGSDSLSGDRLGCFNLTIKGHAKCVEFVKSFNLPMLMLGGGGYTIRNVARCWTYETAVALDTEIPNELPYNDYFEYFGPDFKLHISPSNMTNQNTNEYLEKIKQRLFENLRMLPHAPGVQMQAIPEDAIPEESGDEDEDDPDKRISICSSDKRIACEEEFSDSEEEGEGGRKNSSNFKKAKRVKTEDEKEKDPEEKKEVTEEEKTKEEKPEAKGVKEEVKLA
T4 sequence (O15379 whole entry): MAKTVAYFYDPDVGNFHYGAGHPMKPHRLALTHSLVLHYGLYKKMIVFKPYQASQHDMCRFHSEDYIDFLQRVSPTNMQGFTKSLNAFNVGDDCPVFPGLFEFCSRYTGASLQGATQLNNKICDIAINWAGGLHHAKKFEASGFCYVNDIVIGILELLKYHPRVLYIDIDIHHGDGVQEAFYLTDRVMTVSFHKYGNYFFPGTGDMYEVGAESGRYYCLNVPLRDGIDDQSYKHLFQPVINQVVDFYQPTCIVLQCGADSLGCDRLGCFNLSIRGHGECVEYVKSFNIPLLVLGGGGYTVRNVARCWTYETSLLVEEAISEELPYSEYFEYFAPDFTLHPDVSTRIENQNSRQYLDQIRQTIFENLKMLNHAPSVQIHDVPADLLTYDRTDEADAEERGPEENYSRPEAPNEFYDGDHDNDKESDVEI
T4 sequence (Q9Y618 389-480 partner limits assumed): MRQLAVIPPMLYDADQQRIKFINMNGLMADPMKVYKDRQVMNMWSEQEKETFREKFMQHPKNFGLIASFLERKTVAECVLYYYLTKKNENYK
T2 sequence (Q92769 whole entry): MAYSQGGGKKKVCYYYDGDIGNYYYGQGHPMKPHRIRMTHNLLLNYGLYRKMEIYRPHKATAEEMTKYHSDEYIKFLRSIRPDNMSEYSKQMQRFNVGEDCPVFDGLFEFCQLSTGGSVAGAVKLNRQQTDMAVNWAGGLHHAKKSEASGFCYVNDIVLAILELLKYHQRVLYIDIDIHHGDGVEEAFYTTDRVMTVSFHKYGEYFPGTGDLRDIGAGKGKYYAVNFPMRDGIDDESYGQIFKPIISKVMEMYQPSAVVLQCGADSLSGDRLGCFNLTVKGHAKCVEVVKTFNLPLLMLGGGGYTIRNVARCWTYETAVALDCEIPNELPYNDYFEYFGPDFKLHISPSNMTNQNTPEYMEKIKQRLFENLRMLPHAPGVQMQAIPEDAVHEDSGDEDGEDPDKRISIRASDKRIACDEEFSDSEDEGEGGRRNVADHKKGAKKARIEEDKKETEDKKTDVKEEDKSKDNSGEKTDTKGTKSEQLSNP

H2B 58-73 (AMGIMNSFVNDIFERI; UniProt P06899 59-74, looked up, fragment)
HillSlope (HDAC1; [1]): 0.92 | Bottom (dose-response fit) (HDAC1; [2]): 0.02 | Top (dose-response fit) (HDAC1; [2]): 1.87 | Bottom (Value) (HDAC2): 0.03 | Top (Value) (HDAC2): 0.16 | HillSlope (Value) (HDAC2): 2.23 | Bottom (HDAC8; [3]): 0.01 | HillSlope (HDAC8; [4]): 0.19 | Top (HDAC8; [5]): 6.07 | HillSlope (HDAC3/NCoR2; [6]): 1.96 | Bottom (dose-response curve fit) (HDAC3/NCoR2; [7]): 0.02 | Top (dose-response curve fit) (HDAC3/NCoR2; [7]): 0.22

H2B 67-82 (NDIFERIAGEASRLAH; UniProt P06899 68-83, looked up, fragment)
HillSlope (HDAC1; [1]): 1.51 | Bottom (dose-response fit) (HDAC1; [2]): 0.04 | Top (dose-response fit) (HDAC1; [2]): 1.04 | Bottom (Value) (HDAC2): 0.02 | Top (Value) (HDAC2): 6.33 | HillSlope (Value) (HDAC2): 0.44 | Bottom (HDAC8; [3]): 0.03 | HillSlope (HDAC8; [4]): 0.69 | Top (HDAC8; [5]): 4.21 | HillSlope (HDAC3/NCoR2; [6]): 1.68 | Bottom (dose-response curve fit) (HDAC3/NCoR2; [7]): 0.01 | Top (dose-response curve fit) (HDAC3/NCoR2; [7]): 0.39

H2B 61-76 (IMNSFVNDIFERIAGE; UniProt P62807 62-77, looked up, fragment)
HillSlope (HDAC1; [1]): 1.29 | Bottom (dose-response fit) (HDAC1; [2]): 0.03 | Top (dose-response fit) (HDAC1; [2]): 1.15 | Bottom (Value) (HDAC2): 0.02 | Top (Value) (HDAC2): 0.12 | HillSlope (Value) (HDAC2): 1.69 | Bottom (HDAC8; [3]): -0.5 | HillSlope (HDAC8; [4]): 0.02 | Top (HDAC8; [5]): 0.56 | HillSlope (HDAC3/NCoR2; [6]): 1.99 | Bottom (dose-response curve fit) (HDAC3/NCoR2; [7]): 0.01 | Top (dose-response curve fit) (HDAC3/NCoR2; [7]): 0.17

H2A 16-31 (TRSSRAGLQFPVGRVH; microarray-immobilized; UniProt P0C0S8 17-32, looked up, fragment)
HillSlope (HDAC1; [1]): 1 | Bottom (dose-response fit) (HDAC1; [2]): 0.03 | Top (dose-response fit) (HDAC1; [2]): 1.15 | LogEC50 (M) (HDAC1; recombinant HDAC1, Fig. 3, X = Asuha, values are log10 of EC50 in M): -7.63 M | Bottom (Value) (HDAC2): 0.04 | Top (Value) (HDAC2): 3.35 | HillSlope (Value) (HDAC2): 1.17 | Bottom (HDAC8; [3]): 0.05 | HillSlope (HDAC8; [4]): 6.81 | Top (HDAC8; [5]): 0.12 | HillSlope (HDAC3/NCoR2; [6]): 0.97 | Bottom (dose-response curve fit) (HDAC3/NCoR2; [7]): 0.01 | Top (dose-response curve fit) (HDAC3/NCoR2; [7]): 0.73

CC[C@H](C)[C@H](NC(=O)[C@H](CCC(=O)O)NC(=O)[C@H](CCCNC(=N)N)NC(=O)[C@H](CO)NC(=O)[C@@H](NC(=O)[C@@H](NC(=O)[C@@H](NC(C)=O)[C@@H](C)O)[C@@H](C)CC)[C@@H](C)O)C(=O)N[C@@H](CCC(N)=O)C(=O)N[C@H](C(=O)N[C@@H](C)C(=O)N[C@H](C(=O)N[C@@H](CCCNC(=N)N)C(=O)N[C@@H](CC(C)C)C(=O)N[C@@H](CC(C)C)C(=O)N[C@@H](CC(C)C)C(=O)N1CCC[C@H]1C(N)=O)C(C)C)[C@@H](C)O [H2B 88-103] (Ac-TITSREIQTAVRLLLP-NH2)
HillSlope (HDAC1; [1]): 1.19 | Bottom (dose-response fit) (HDAC1; [2]): 0.05 | Top (dose-response fit) (HDAC1; [2]): 1.11 | Bottom (Value) (HDAC2): 0.04 | Top (Value) (HDAC2): 0.21 | HillSlope (Value) (HDAC2): 1.75 | Bottom (HDAC8; [3]): 0.03 | HillSlope (HDAC8; [4]): 10.85 | Top (HDAC8; [5]): 0.09 | HillSlope (HDAC3/NCoR2; [6]): 1.33 | Bottom (dose-response curve fit) (HDAC3/NCoR2; [7]): 0.01 | Top (dose-response curve fit) (HDAC3/NCoR2; [7]): 0.74

P10 (KGLG[Asuha]GGAK)
Bottom (HDAC1; [8]): 0.02 | HillSlope (HDAC1; [8]): 0.6 | Top (HDAC1; [8]): 1.69 | Bottom (HDAC2; [9]): 0.03 | HillSlope (HDAC2; [9]): 1.44 | Top (HDAC2; [9]): 0.39 | Bottom (HDAC8; [10]): 0.03 | HillSlope (HDAC8; [10]): 10.49 | Top (HDAC8; [10]): 0.13 | Bottom (HDAC3/NCoR2; [11]): 0.06 | HillSlope (HDAC3/NCoR2; [11]): 4.03 | Top (HDAC3/NCoR2; [11]): 0.95 | LogEC50 (M) (HDAC3/NCoR2; log of EC50 in M, dose-response fit, µSPOT microarray, H4 K12X (X = Asuha) peptides, HDAC3): -8.87 M

H2A 37-52 (GNYSERVGAGAPVYLA; UniProt P04908 38-53, looked up, fragment)
HillSlope (HDAC1; [1]): 0.92 | Bottom (dose-response fit) (HDAC1; [2]): 0.01 | Top (dose-response fit) (HDAC1; [2]): 6.54 | Bottom (Value) (HDAC2): 0.01 | Top (Value) (HDAC2): 3.9 | HillSlope (Value) (HDAC2): 0.79 | Bottom (HDAC8; [3]): 0.01 | HillSlope (HDAC8; [4]): 7.44 | Top (HDAC8; [5]): 0.07 | HillSlope (HDAC3/NCoR2; [6]): 0.78 | Bottom (dose-response curve fit) (HDAC3/NCoR2; [7]): 0 | Top (dose-response curve fit) (HDAC3/NCoR2; [7]): 0.79

H2A 19-34 (SRAGLQFPVGRVHRLL; UniProt P04908 20-35, looked up, fragment)
HillSlope (HDAC1; [1]): 0.75 | Bottom (dose-response fit) (HDAC1; [2]): 0.02 | Top (dose-response fit) (HDAC1; [2]): 2.31 | Bottom (Value) (HDAC2): 0.04 | Top (Value) (HDAC2): 76.12 | HillSlope (Value) (HDAC2): 0.81 | Bottom (HDAC8; [3]): 0.05 | HillSlope (HDAC8; [4]): 8.22 | Top (HDAC8; [5]): 0.14 | HillSlope (HDAC3/NCoR2; [6]): 1.37 | Bottom (dose-response curve fit) (HDAC3/NCoR2; [7]): 0.02 | Top (dose-response curve fit) (HDAC3/NCoR2; [7]): 0.67

H2A 49-64 (VYLAAVLEYLTAEILE; UniProt P0C0S8 50-65, looked up, fragment)
HillSlope (HDAC1; [1]): 1.26 | Bottom (dose-response fit) (HDAC1; [2]): 0.01 | Top (dose-response fit) (HDAC1; [2]): 0.2 | Bottom (Value) (HDAC2): 0.02 | Top (Value) (HDAC2): 0.44 | HillSlope (Value) (HDAC2): 0.89 | Bottom (HDAC8; [3]): 0.02 | HillSlope (HDAC8; [4]): 0.49 | Top (HDAC8; [5]): 6.68 | HillSlope (HDAC3/NCoR2; [6]): 1.38 | Bottom (dose-response curve fit) (HDAC3/NCoR2; [7]): 0 | Top (dose-response curve fit) (HDAC3/NCoR2; [7]): 0.57

H2B 91-106 (SREIQTAVRLLLPGEL; UniProt P62807 92-107, looked up, fragment)
HillSlope (HDAC1; [1]): 1.35 | Bottom (dose-response fit) (HDAC1; [2]): 0.04 | Top (dose-response fit) (HDAC1; [2]): 1.07 | Bottom (Value) (HDAC2): 0.03 | Top (Value) (HDAC2): 44.03 | HillSlope (Value) (HDAC2): 0.48 | Bottom (HDAC8; [3]): 0.04 | HillSlope (HDAC8; [4]): 6.48 | Top (HDAC8; [5]): 0.09 | HillSlope (HDAC3/NCoR2; [6]): 1.45 | Bottom (dose-response curve fit) (HDAC3/NCoR2; [7]): 0.01 | Top (dose-response curve fit) (HDAC3/NCoR2; [7]): 0.55
